From patent publication US20180086849A1 (Hoffmann-La Roche, published 2018)

B1: 1+1 IgG scFab, one armed inverted (anti-EGFR/anti-huCD3) (bispecific antibody)
chain 1: not shown
chain 2: not shown
chain 3: EVQLVESGGGLVQPGGSLRLSCAASGYSFTGYTMNWVRQAPGKGLEWVALINPYKGVSTYNQKFKDRFTISVDKSKNTAYLQMNSLRAEDTAVYYCARSGYYGDSDWYFDVWGQGTLVTVSSASTKGPSVFPLAPSSKSTSGGTAALGCLVKDYFPEPVTVSWNSGALTSGVHTFPAVLQSSGLYSLSSVVTVPSSSLGTQTYICNVNHKPSNTKVDKKVEPKSCDKTHTCPPCPAPEAAGGPSVFLFPPKPKDTLMISRTPEVTCVVVDVSHEDPEVKFNWYVDGVEVHNAKTKPREEQYNSTYRVVSVLTVLHQDWLNGKEYKCKVSNKALGAPIEKTISKAKGQPREPQVCTLPPSRDELTKNQVSLSCAVKGFYPSDIAVEWESNGQPENNYKTTPPVLDSDGSFFLVSKLTVDKSRWQQGNVFSCSVMHEALHNHYTQKSLSLSPGK
B2: 2+1 IgG scFab, P329G LALA (anti-EGFR/anti-huCD3) (bispecific antibody)
chain 1: QVQLVQSGAEVKKPGSSVKVSCKASGFTFTDYKIHWVRQAPGQGLEWMGYFNPNSGYSTYAQKFQGRVTITADKSTSTAYMELSSLRSEDTAVYYCARLSPGGYYVMDAWGQGTTVTVSSASTKGPSVFPLAPSSKSTSGGTAALGCLVKDYFPEPVTVSWNSGALTSGVHTFPAVLQSSGLYSLSSVVTVPSSSLGTQTYICNVNHKPSNTKVDKKVEPKSCDKTHTCPPCPAPEAAGGPSVFLFPPKPKDTLMISRTPEVTCVVVDVSHEDPEVKFNWYVDGVEVHNAKTKPREEQYNSTYRVVSVLTVLHQDWLNGKEYKCKVSNKALGAPIEKTISKAKGQPREPQVCTLPPSRDELTKNQVSLSCAVKGFYPSDIAVEWESNGQPENNYKTTPPVLDSDGSFFLVSKLTVDKSRWQQGNVFSCSVMHEALHNHYTQKSLSLSPGK
chain 2: DIQMTQSPSSLSASVGDRVTITCRASQGINNYLNWYQQKPGKAPKRLIYNTNNLQTGVPSRFSGSGSGTEFTLTISSLQPEDFATYYCLQHNSFPTFGQGTKLEIKRTVAAPSVFIFPPSDEQLKSGTASVVCLLNNFYPREAKVQWKVDNALQSGNSQESVTEQDSKDSTYSLSSTLTLSKADYEKHKVYACEVTHQGLSSPVTKSFNRGEC
chain 3: not shown
notes: also called 2+1 IgG scFab (EGFR)
B3: 1+1 IgG scFab (anti-EGFR/anti-huCD3) (bispecific antibody)
chain 1: DIQMTQSPSSLSASVGDRVTITCRASQGINNYLNWYQQKPGKAPKRLIYNTNNLQTGVPSRFSGSGSGTEFTLTISSLQPEDFATYYCLQHNSFPTFGQGTKLEIKRTVAAPSVFIFPPSDEQLKSGTASVVCLLNNFYPREAKVQWKVDNALQSGNSQESVTEQDSKDSTYSLSSTLTLSKADYEKHKVYACEVTHQGLSSPVTKSFNRGEC
chain 2: not shown
chain 3: DKTHTCPPCPAPEAAGGPSVFLFPPKPKDTLMISRTPEVTCVVVDVSHEDPEVKFNWYVDGVEVHNAKTKPREEQYNSTYRVVSVLTVLHQDWLNGKEYKCKVSNKALGAPIEKTISKAKGQPREPQVCTLPPSRDELTKNQVSLSCAVKGFYPSDIAVEWESNGQPENNYKTTPPVLDSDGSFFLVSKLTVDKSRWQQGNVFSCSVMHEALHNHYTQKSLSLSPGK
B4: 1+1 IgG scFab, one armed (anti-EGFR/anti-huCD3) (bispecific antibody)
chain 1: not shown
chain 2: QVQLVQSGAEVKKPGSSVKVSCKASGFTFTDYKIHWVRQAPGQGLEWMGYFNPNSGYSTYAQKFQGRVTITADKSTSTAYMELSSLRSEDTAVYYCARLSPGGYYVMDAWGQGTTVTVSSASTKGPSVFPLAPSSKSTSGGTAALGCLVKDYFPEPVTVSWNSGALTSGVHTFPAVLQSSGLYSLSSVVTVPSSSLGTQTYICNVNHKPSNTKVDKKVEPKSCDKTHTCPPCPAPEAAGGPSVFLFPPKPKDTLMISRTPEVTCVVVDVSHEDPEVKFNWYVDGVEVHNAKTKPREEQYNSTYRVVSVLTVLHQDWLNGKEYKCKVSNKALGAPIEKTISKAKGQPREPQVCTLPPSRDELTKNQVSLSCAVKGFYPSDIAVEWESNGQPENNYKTTPPVLDSDGSFFLVSKLTVDKSRWQQGNVFSCSVMHEALHNHYTQKSLSLSPGK
chain 3: DIQMTQSPSSLSASVGDRVTITCRASQGINNYLNWYQQKPGKAPKRLIYNTNNLQTGVPSRFSGSGSGTEFTLTISSLQPEDFATYYCLQHNSFPTFGQGTKLEIKRTVAAPSVFIFPPSDEQLKSGTASVVCLLNNFYPREAKVQWKVDNALQSGNSQESVTEQDSKDSTYSLSSTLTLSKADYEKHKVYACEVTHQGLSSPVTKSFNRGEC

What follows are binders tested against T1, Human EGFR (immobilized on CM5 chip) (human, UniProt P00533 25-645, limits assumed) (assay: SPR (Biacore T100): construct captured at 200 nM on immobilised human EGFR, then CD3 fusion at 2000 nM).
T1 construct: also called tumor antigen
B1: binds.
B2: binds.
B3: binds.
B4: binds.
